Measured values from patent US8624002B2, “Prostaglandin E2 binding proteins and uses thereof” (AbbVie, Inc., priority 2008, dated 2014).

How the values were obtained:
[1] = Pharmacokinetics of 2B5.8.0 in Balb/C mice; type: in vivo
Description: Pharmacokinetic studies with mouse mAb 2B5.8.0 were carried out in Sprague Dawley rats and Balb/C mice. Male and female rats and mice were dosed intravenously or intraperitoneally (mice only) with a single dose of 4 mg/kg 2B5.8.0 and serum samples were analyzed using antigen capture based chemiluminescent MSD (Meso Scale Discovery) method (Meso Scale Discovery, Gaithersburg, Md.). Pharmacokinetic parameters were calculated by non-compartmental analysis using WinNonlin.
The following MSD assay was used to measure antibody concentration in rat and mouse serum. MSD streptavidin plates (Meso Scale Discovery, Gaithersburg, Md.) were washed with phosphate buffered saline containing 0.05% Tween-20 (Sigma, St. Louis, Mo.). Plates were blocked with 250 μL/well blocking solution (MSD Block, Meso Scale Discovery, diluted to 3% final concentration in PBS) for 1 hour, covered, with shaking (600 rpm) at room temperature. After washing, 70 μL of biotinylated PGE2 (Prostoglandin E2-biotinamide, Cayman Chemical, Ann Arbor, Mich., cat# 10006987, lot# 190831-191028, 0.01 ug/mL in assay buffer) was added to each well. The plates were covered and incubated with shaking (600 rpm) for 1 hour at room temperature
(§1) Prior to analysis, rat and mouse serum samples were thawed on ice, mixed gently, and centrifuged at 14,000 rpm for 3 minutes at 4° C. in an eppendorf centrifuge. Standard curve and control samples were prepared in rat and mouse serum. A Tecan Evo automated liquid handling station was used to dilute standard curve, high, medium, and low controls, and serum samples in assay buffer, keeping 1% final serum concentration constant. MSD plates were washed again and study samples, standard curve samples and blanks, as well as high, medium, and low controls were added (70 μL/well). The plates were covered, and incubated for 1 hour with shaking (600 rpm) at room temperature.
After incubation, the MSD plates were washed, and 70 μL of sulfo-tagged goat anti-mouse IgG (Meso Scale Discovery; diluted to 1 ug/mL in assay buffer) was added to each well. The MSD plates were covered, and incubated with shaking (600 rpm) for 1 hour at room temperature, then the plates were washed and developed with 2× Read Buffer (Meso Scale Discovery). Chemilumeniscence was measured within ten minutes on the MSD Sector Imager 6000.
(§2) Standard curves were analyzed using four-parameter logistic fit and sample concentrations were calculated by XLfit4 software version 2.2.1 Build 16, ([…].). Pharmacokinetic parameters were calculated for each animal using Winonlin software version 5.0.1 (Pharsight Corporation, Mountain View, Calif.) by noncompartmental analysis.
Male and female Balb/c mice (weighing approximately 0.025 kg) were purchased from Charles River Laboratories (Wilmington, Mass.). The animals were allowed food and water ad libitum. Blood samples were collected (0.2 mL from the rats via the tail vein and by cardiac puncture from the mice) at various timepoints (5 mice at each timepoint) allowed to clot for 30 minutes at room temperature, centrifuged for 3 minutes at 13,200 rpm, the serum transferred to eppendorf tubes and stored frozen at −80° C.

[2] = Pharmacokinetics of hu2B5.7 and hu2B5.4 in Sprague-Dawley rats; type: in vivo; conditions: male Sprague-Dawley rats, IV 4 mg/kg
Description: Pharmacokinetic parameters were calculated by non-compartmental analysis using WinNonlin.
MSD streptavidin plates (Meso Scale Discovery) were washed with phosphate buffered saline containing 0.05% Tween-20 (diluted from 10×PBS, Abbott Bioresearch Center, Media Room, Worcester, Mass. and Tween-20, Sigma, St. Louis, Mo.). Plates were blocked with 250 μL/well blocking solution (MSD Block, Meso Scale Discovery, diluted to 3% final concentration in PBS) for 1 hour, covered, with shaking (600 rpm) at room temperature. After washing, 70 μL of biotinylated PGE2 (Prostoglandin E2-biotinamide, Cayman Chemical, Ann Arbor, Mich., cat# 10006987, lot# 190831-191028; 0.01 ug/mL in assay buffer) was added to each well. The plates were covered and incubated with shaking (600 rpm) for 1 hour at room temperature.
as §1, with “rat” for “rat and mouse”, “serum.” for “serum. A”
After incubation, the MSD plates were washed, and 70 μL sulfo-tagged goat anti-human IgG (Meso Scale Discovery; diluted to 1 ug/mL in assay buffer) was added to each well. The MSD plates were covered, and incubated with shaking (600 rpm) for 1 hour at room temperature, then the plates were washed and developed with 2× Read Buffer (Meso Scale Discovery). Chemilumeniscence was measured within ten minutes on the MSD Sector Imager 6000.
as §2
Surgically altered jugular vein cannulated, JVC) male Sprague-Dawley Rats (approximately seven weeks old, weighing 240-390 grams) were purchased from Charles River Laboratories (Wilmington, Mass.). The animals were housed in rooms maintained at constant temperature and humidity under a 12 hour light/dark cycle, fed with normal rodent chow and were allowed food and water ad libitum. Hydration and clinical conditions of the animals were monitored daily.
0.2 mL blood samples were collected from the rats at various timepoints, allowed to clot for 30 minutes at room temperature, centrifuged for 3 minutes at 13,200 rpm, the serum transferred to eppendorf tubes and stored frozen at −80° C.

[3] = mice, intraperitoneal, both sexes

B1: 2B5-8.0: recombinant anti-PGE2 antibody from solved 2B5 sequence; VH SEQ ID NO 42, VL SEQ ID NO 43 (antibody, V domains shown)
VH: QVQLQQSGPELVRPGSSVKISCKASGYTFTKYWLGWVKQRPGHGLEWIGDIYPGYDYTHYNEKFKDKATLTVDTSSSTAYMQLSSLTSEDSAIYYCARSDGSSTYWGQGTLVTVSA
VL: DVLMTQTPLSLPVSLGDQASISCTSSQNIVHSNGNTYLEWYLQRPGQSPKLLIYKVSNRFSGVPDRFSGSGSGTVFTLKISRVEAEDLGVYYCFQVSHVPYTFGGGTKLEIKR
- Cmax [1, 3]: 37000 to 49000 ng/mL
- bioavailability [1, 3]: 65.8-72.0%
- half-life [1, 3]: 13.8 to 16.1 days
- AUC0-∞ ([1]; mouse, female, IP 4 mg/kg): 16100 µg·h/mL
- Cmax ([1]; mouse, female, IP 4 mg/kg): 49400 ng/mL
- F (%) ([1]; mouse, female, IP 4 mg/kg): 65.8%
- MRT ([1]; mouse, female, IP 4 mg/kg): 19.3 days
- Tmax ([1]; mouse, female, IP 4 mg/kg): 1 days
- T½ ([1]; mouse, female, IP 4 mg/kg): 13.8 days
- AUC0-∞ ([1]; mouse, female, IV 4 mg/kg): 24500 µg·h/mL
- CL ([1]; mouse, female, IV 4 mg/kg): 3.84 mL/day/kg
- MRT ([1]; mouse, female, IV 4 mg/kg): 22.8 days
- T½ ([1]; mouse, female, IV 4 mg/kg): 16.2 days
- Vss ([1]; mouse, female, IV 4 mg/kg): 0.089 L/kg
- Vz ([1]; mouse, female, IV 4 mg/kg): 0.092 L/kg
- AUC0-∞ ([1]; mouse, male, IP 4 mg/kg): 19400 µg·h/mL
- Cmax ([1]; mouse, male, IP 4 mg/kg): 37300 ng/mL
- F (%) ([1]; mouse, male, IP 4 mg/kg): 72%
- MRT ([1]; mouse, male, IP 4 mg/kg): 23.4 days
- Tmax ([1]; mouse, male, IP 4 mg/kg): 2 days
- T½ ([1]; mouse, male, IP 4 mg/kg): 16.1 days
- AUC0-∞ ([1]; mouse, male, IV 4 mg/kg): 26900 µg·h/mL
- CL ([1]; mouse, male, IV 4 mg/kg): 3.6 mL/day/kg
- MRT ([1]; mouse, male, IV 4 mg/kg): 37.5 days
- T½ ([1]; mouse, male, IV 4 mg/kg): 26.3 days
- Vss ([1]; mouse, male, IV 4 mg/kg): 0.134 L/kg
- Vz ([1]; mouse, male, IV 4 mg/kg): 0.135 L/kg

B2: Hu2B5.4: humanized 2B5-8.0; VH SEQ ID NO 66, VL SEQ ID NO 67 (antibody, V domains shown)
VH: EVQLVQSGAEVKKPGASVKVSCKASGYTFTKYWLGWVRQAPGQGLEWIGDIYPGYDYTHYNEKFKDRATLTVDTSTSTAYMELSSLRSDDTAVYYCARSDGSSTYWGQGTLVTVSS
VL: DVLMTQTPLSLPVTPGEPASISCTSSQNIVHSNGNTYLEWYLQKPGQSPQLLIYKVSNRFSGVPDRFSGSGSGTDFTLKISRVEAEDVGVYYCFQVSHVPYTFGGGTKVEIKR
- AUC0-∞ [2]: 11800 ± 2000 µg·h/mL
- CL [2]: 8.4 ± 1.7 mL/day/kg
- MRT [2]: 18.0 ± 6.0 days
- T½ [2]: 12.4 days
- Vss [2]: 0.145 ± 0.0318 L/kg
- Vz [2]: 0.143 ± 0.0402 L/kg
